From patent US6403765B1, “Truncated Apaf-1 and methods of use thereof” (Thomas Jefferson University, priority 1998, dated 2002)

Legend:
procaspase-9 = molecular target: T1, procaspase-9 (Homo sapiens, UniProt P55211); assay: In vitro caspase 9 activation assay: recombinant Apaf-1 variants incubated with in vitro translated procaspase-9; format: biochemical; details: in the absence of cytochrome c or dATP; 200 ng protein, 2 h at 30° C.; SDS-PAGE and autoradiography (FIG. 2A)
T1 construct: schematic representation of full length procaspase-9; made in house; host or cells: coupled in vitro transcription/translation in rabbit reticulocyte lysate (TNT Kit, Promega)
T1 sequence (P55211 1-416): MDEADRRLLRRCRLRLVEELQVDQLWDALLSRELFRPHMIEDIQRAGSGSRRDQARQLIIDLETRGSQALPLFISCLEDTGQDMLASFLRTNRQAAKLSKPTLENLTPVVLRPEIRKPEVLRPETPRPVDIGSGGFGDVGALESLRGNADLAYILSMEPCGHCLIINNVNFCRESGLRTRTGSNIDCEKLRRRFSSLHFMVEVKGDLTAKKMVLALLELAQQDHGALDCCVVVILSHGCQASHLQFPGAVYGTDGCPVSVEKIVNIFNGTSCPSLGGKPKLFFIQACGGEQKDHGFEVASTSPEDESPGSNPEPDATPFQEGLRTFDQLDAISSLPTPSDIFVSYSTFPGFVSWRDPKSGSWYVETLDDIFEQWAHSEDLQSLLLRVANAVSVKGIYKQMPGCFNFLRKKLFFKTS

[1] = system: chimeric procaspase-3 with an N-terminal procaspase-9 prodomain; assay: Processing of chimeric procaspase-3 by Apaf-530-bound caspase-9; format: biochemical; details: Apaf-530 in the absence of procaspase-9, FIG. 15
Procedure: To achieve this, a chimeric procaspase-3 with an N-terminal caspase-9 prodomain was constructed. Caspase-9 prodomain in the chimera may allow recruitment of the chimeric procaspase-3 to the Apaf-530-caspase-9 complex. […] In FIG. 15, ^35S-labeled chimeric procaspase-3 with an N-terminal procaspase-9 prodomain (lanes 1-4) or WT procaspase-3 (lanes 5-8) were incubated with buffer or Apaf-530 in the presence or absence of a non-radiolabeled WT procaspase-9 and analyzed by SDS-PAGE followed by autoradiography.

T7-tagged Apaf-530 = molecular target: T2, T7-tagged Apaf-530 (Homo sapiens, UniProt O14727); assay: Co-immunoprecipitation of Flag-tagged Apaf-1 variants with T7-tagged Apaf-530 in 293 cells; format: binding; details: anti-Flag immunoprecipitation, anti-T7 blot, 36 hours, FIG. 11
T2 construct: expressed in transfected cells; host or cells: 293 cells
T2 sequence (O14727 1-530 isoform O14727-3): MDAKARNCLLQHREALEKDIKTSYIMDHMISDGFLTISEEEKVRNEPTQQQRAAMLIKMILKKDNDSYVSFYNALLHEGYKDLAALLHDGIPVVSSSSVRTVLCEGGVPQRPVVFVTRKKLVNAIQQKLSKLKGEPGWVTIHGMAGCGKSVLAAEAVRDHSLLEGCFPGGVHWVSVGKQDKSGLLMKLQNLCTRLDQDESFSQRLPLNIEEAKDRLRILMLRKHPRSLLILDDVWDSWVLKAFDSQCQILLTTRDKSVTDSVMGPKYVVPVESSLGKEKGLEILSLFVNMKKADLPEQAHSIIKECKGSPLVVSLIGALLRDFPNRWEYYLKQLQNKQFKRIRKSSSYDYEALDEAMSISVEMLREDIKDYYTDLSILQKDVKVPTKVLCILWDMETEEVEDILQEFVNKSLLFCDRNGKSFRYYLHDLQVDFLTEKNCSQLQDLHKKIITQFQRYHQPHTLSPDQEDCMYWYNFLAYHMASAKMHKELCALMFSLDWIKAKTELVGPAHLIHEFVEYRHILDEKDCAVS
Procedure: The ability of APAF-530 to oligomerize pro-caspase-9 was tested. Co-transfection experiments in 293 cells were performed with T7-tagged Apaf-530 and different Flag-tagged Apaf-1 variants, and cell lysates were prepared and immunoprecipitated with an anti-Flag antibody. The immunoprecipitates were analyzed by Western blotting with an anti-T7 antibody.
In FIG. 11, 293 cells were co-transfected with constructs encoding T7-tagged Apaf-530 and an empty vector (lane 1) or constructs encoding Flag-tagged Apaf-1 (lane 2), Flag-tagged Apaf-530 (lane 3), Flag-tagged Apaf-530ΔCARD (lane 4) or Flag-tagged Apaf-97 (lane 5). After 36 hours, extracts were prepared and immunoprecipitated with a monoclonal antibody to the Flag epitope. The immunoprecipitates (upper panel) were analyzed by SDS-PAGE and immunoblotted with a horseradish peroxides-conjugated T7 antibody. The corresponding cellular extracts were also analyzed by SDS-PAGE and immunoblotted with a horseradish peroxides-conjugated T7 antibody (middle panel) or an anti-Flag antibody (lower panel).

B1: Apaf-530: truncated Apaf-1 (residues 1-530) lacking its WD-40 repeats, recombinant (protein, UniProt O14727 1-530, looked up, fragment)
chain: MDAKARNCLLQHREALEKDIKTSYIMDHMISDGFLTISEEEKVRNEPTQQQRAAMLIKMILKKDNDSYVSFYNALLHEGYKDLAALLHDGIPVVSSSSGKDSVSGITSYVRTVLCEGGVPQRPVVFVTRKKLVNAIQQKLSKLKGEPGWVTIHGMAGCGKSVLAAEAVRDHSLLEGCFPGGVHWVSVGKQDKSGLLMKLQNLCTRLDQDESFSQRLPLNIEEAKDRLRILMLRKHPRSLLILDDVWDSWVLKAFDSQCQILLTTRDKSVTDSVMGPKYVVPVESSLGKEKGLEILSLFVNMKKADLPEQAHSIIKECKGSPLVVSLIGALLRDFPNRWEYYLKQLQNKQFKRIRKSSSYDYEALDEAMSISVEMLREDIKDYYTDLSILQKDVKVPTKVLCILWDMETEEVEDILQEFVNKSLLFCDRNGKSFRYYLHDLQVDFLTEKNCSQLQDLHKKIITQFQRYHQPHTLSPDQEDCMYWYNFLAYHMASAKMHKELCALMFSLDWIKAKTELVGPAHLIHEFVEYR
- processing of procaspase-9 to produce a 35 kDa fragment (p35) (procaspase-9): able to promote processing of procaspase-9
- processing of chimeric procaspase-3 [1]: no processing was observed
- co-immunoprecipitation with T7-Apaf-530 (T7-tagged Apaf-530): co-immunoprecipitated
